Measurements published in IntAct's records for PubMed 30126976.

B1: Ecotropic viral integration site 5 protein homolog (Homo sapiens), O60447 (parent)
chain: MVTNKMTAAFRNPSGKQVATDKVAEKLSSTLSWVKNTVSHTVSQMASQVASPSTSLHTTSSSTTLSTPALSPSSPSQLSPDDLELLAKLEEQNRLLETDSKSLRSVNGSRRNSGSSLVSSSSASSNLSHLEEDSWILWGRIVNEWEDVRKKKEKQVKELVHKGIPHHFRAIVWQLLCSAQSMPIKDQYSELLKMTSPCEKLIRRDIARTYPEHNFFKEKDSLGQEVLFNVMKAYSLVDREVGYCQGSAFIVGLLLMQMPEEEAFCVFVKLMQDYRLRELFKPSMAELGLCMYQFECMIQEHLPELFVHFQSQSFHTSMYASSWFLTIFLTTFPLPIATRIFDIFMSEGLEIVFRVGLALLQMNQAELMQLDMEGMLQHFQKVIPHQFDGVPDKLIQAAYQVKYNSKKMKKLEKEYTTIKTKEMEEQVEIKRLRTENRLLKQRIETLEKHKCSSNYNEDFVLQLEKELVQARLSEAESQCALKEMQDKVLDIEKRNNSLPDENNIARLQEELIAVKLREAEAIMGLKELRQQVKDLEEHWQRHLARTTGRWKDPPKKNAMNELQDELMTIRLREAETQAEIREIKQRMMEMETQNQINSNHLRRAEQEVISLQEKVQYLSAQNKGLLTQLSEAKRKQAEIECKNKEEVMAVRLREADSIAAVAELRQHIAELEIQKEEGKLQGQLNKSDSNQYIGELKDQIAELNHELRCLKGQRGFSGQPPFDGIHIVNHLIGDDESFHSSDEDFIDNSLQETGVGFPLHGKSGSMSLDPAVADGSESETEDSVLETRESNQVVQKERPPRRRESYSTTV
B2: Neuroepithelial cell-transforming gene 1 protein (Homo sapiens), Q7Z628 (parent)
chain: MEPELAAQKQPRPRRRSRRASGLSTEGATGPSADTSGSELDGRCSLRRGSSFTFLTPGPNWDFTLKRKRREKDDDVVSLSSLDLKEPSNKRVRPLARVTSLANLISPVRNGAVRRFGQTIQSFTLRGDHRSPASAQKFSSRSTVPTPAKRRSSALWSEMLDITMKESLTTREIRRQEAIYEMSRGEQDLIEDLKLARKAYHDPMLKLSIMSEEELTHIFGDLDSYIPLHEDLLTRIGEATKPDGTVEQIGHILVSWLPRLNAYRGYCSNQLAAKALLDQKKQDPRVQDFLQRCLESPFSRKLDLWSFLDIPRSRLVKYPLLLKEILKHTPKEHPDVQLLEDAILIIQGVLSDINLKKGESECQYYIDKLEYLDEKQRDPRIEASKVLLCHGELRSKSGHKLYIFLFQDILVLTRPVTRNERHSYQVYRQPIPVQELVLEDLQDGDVRMGGSFRGAFSNSEKAKNIFRIRFHDPSPAQSHTLQANDVFHKQQWFNCIRAAIAPFQSAGSPPELQGLPELHEECEGNHPSARKLTAQRRASTVSSVTQVEVDENAYRCGSGMQMAEDSKSLKTHQTQPGIRRARDKALSGGKRKETLV
B3: Rho guanine nucleotide exchange factor 16 (Homo sapiens), Q5VV41 (parent)
chain: MAQRHSDSSLEEKLLGHRFHSELRLDAGGNPASGLPMVRGSPRVRDDAAFQPQVPAPPQPRPPGHEEPWPIVLSTESPAALKLGTQQLIPKSLAVASKAKTPARHQSFGAAVLSREAARRDPKLLPAPSFSLDDMDVDKDPGGMLRRNLRNQSYRAAMKGLGKPGGQGDAIQLSPKLQALAEEPSQPHTRSPAKNKKTLGRKRGHKGSFKDDPQLYQEIQERGLNTSQESDDDILDESSSPEGTQKVDATIVVKSYRPAQVTWSQLPEVVELGILDQLSTEERKRQEAMFEILTSEFSYQHSLSILVEEFLQSKELRATVTQMEHHHLFSNILDVLGASQRFFEDLEQRHKAQVLVEDISDILEEHAEKHFHPYIAYCSNEVYQQRTLQKLISSNAAFREALREIERRPACGGLPMLSFLILPMQRVTRLPLLMDTLCLKTQGHSERYKAASRALKAISKLVRQCNEGAHRMERMEQMYTLHTQLDFSKVKSLPLISASRWLLKRGELFLVEETGLFRKIASRPTCYLFLFNDVLVVTKKKSEESYMVQDYAQMNHIQVEKIEPSELPLPGGGNRSSSVPHPFQVTLLRNSEGRQEQLLLSSDSASDRARWIVALTHSERQWQGLSSKGDLPQVEITKAFFAKQADEVTLQQADVVLVLQQEDGWLYGERLRDGETGWFPEDFARFITSRVAVEGNVRRMERLRVETDV
B4: Vang-like protein 2 (Homo sapiens), Q9ULK5 (parent)
chain: MDTESQYSGYSYKSGHSRSSRKHRDRRDRHRSKSRDGGRGDKSVTIQAPGEPLLDNESTRGDERDDNWGETTTVVTGTSEHSISHDDLTRIAKDMEDSVPLDCSRHLGVAAGATLALLSFLTPLAFLLLPPLLWREELEPCGTACEGLFISVAFKLLILLLGSWALFFRRPKASLPRVFVLRALLMVLVFLLVVSYWLFYGVRILDARERSYQGVVQFAVSLVDALLFVHYLAVVLLELRQLQPQFTLKVVRSTDGASRFYNVGHLSIQRVAVWILEKYYHDFPVYNPALLNLPKSVLAKKVSGFKVYSLGEENSTNNSTGQSRAVIAAAARRRDNSHNEYYYEEAEHERRVRKRRARLVVAVEEAFTHIKRLQEEEQKNPREVMDPREAAQAIFASMARAMQKYLRTTKQQPYHTMESILQHLEFCITHDMTPKAFLERYLAAGPTIQYHKERWLAKQWTLVSEEPVTNGLKDGIVFLLKRQDFSLVVSTKKVPFFKLSEEFVDPKSHKFVMRLQSETSV
B5: Inward rectifier potassium channel 4 (Homo sapiens), P48050 (parent)
chain: MHGHSRNGQAHVPRRKRRNRFVKKNGQCNVYFANLSNKSQRYMADIFTTCVDTRWRYMLMIFSAAFLVSWLFFGLLFWCIAFFHGDLEASPGVPAAGGPAAGGGGAAPVAPKPCIMHVNGFLGAFLFSVETQTTIGYGFRCVTEECPLAVIAVVVQSIVGCVIDSFMIGTIMAKMARPKKRAQTLLFSHHAVISVRDGKLCLMWRVGNLRKSHIVEAHVRAQLIKPYMTQEGEYLPLDQRDLNVGYDIGLDRIFLVSPIIIVHEIDEDSPLYGMGKEELESEDFEIVVILEGMVEATAMTTQARSSYLASEILWGHRFEPVVFEEKSHYKVDYSRFHKTYEVAGTPCCSARELQESKITVLPAPPPPPSAFCYENELALMSQEEEEMEEEAAAAAAVAAGLGLEAGSKEEAGIIRMLEFGSHLDLERMQASLPLDNISYRRESAI
B6: A-kinase anchor protein 1, mitochondrial (Homo sapiens), Q92667 (parent)
chain: MAIQFRSLFPLALPGMLALLGWWWFFSRKKGHVSSHDEQQVEAGAVQLRADPAIKEPLPVEDVCPKVVSTPPSVTEPPEKELSTVSKLPAEPPALLQTHPPCRRSESSGILPNTTDMRLRPGTRRDDSTKLELALTGGEAKSIPLECPLSSPKGVLFSSKSAEVCKQDSPFSRVPRKVQPGYPVVPAEKRSSGERARETGGAEGTGDAVLGEKVLEEALLSREHVLELENSKGPSLASLEGEEDKGKSSSSQVVGPVQEEEYVAEKLPSRFIESAHTELAKDDAAPAPPVADAKAQDRGVEGELGNEESLDRNEEGLDRNEEGLDRNEESLDRNEEGLDRNEEIKRAAFQIISQVISEATEQVLATTVGKVAGRVCQASQLQGQKEESCVPVHQKTVLGPDTAEPATAEAAVAPPDAGLPLPGLPAEGSPPPKTYVSCLKSLLSSPTKDSKPNISAHHISLASCLALTTPSEELPDRAGILVEDATCVTCMSDSSQSVPLVASPGHCSDSFSTSGLEDSCTETSSSPRDKAITPPLPESTVPFSNGVLKGELSDLGAEDGWTMDAEADHSGGSDRNSMDSVDSCCSLKKTESFQNAQAGSNPKKVDLIIWEIEVPKHLVGRLIGKQGRYVSFLKQTSGAKIYISTLPYTQSVQICHIEGSQHHVDKALNLIGKKFKELNLTNIYAPPLPSLALPSLPMTSWLMLPDGITVEVIVVNQVNAGHLFVQQHTHPTFHALRSLDQQMYLCYSQPGIPTLPTPVEITVICAAPGADGAWWRAQVVASYEETNEVEIRYVDYGGYKRVKVDVLRQIRSDFVTLPFQGAEVLLDSVMPLSDDDQFSPEADAAMSEMTGNTALLAQVTSYSPTGLPLIQLWSVVGDEVVLINRSLVERGLAQWVDSYYTSL

Variants of: B1
Settings: with dlg1_human DLG1, Q12959
Target sequence in this assay (Q12959 whole entry, looked up): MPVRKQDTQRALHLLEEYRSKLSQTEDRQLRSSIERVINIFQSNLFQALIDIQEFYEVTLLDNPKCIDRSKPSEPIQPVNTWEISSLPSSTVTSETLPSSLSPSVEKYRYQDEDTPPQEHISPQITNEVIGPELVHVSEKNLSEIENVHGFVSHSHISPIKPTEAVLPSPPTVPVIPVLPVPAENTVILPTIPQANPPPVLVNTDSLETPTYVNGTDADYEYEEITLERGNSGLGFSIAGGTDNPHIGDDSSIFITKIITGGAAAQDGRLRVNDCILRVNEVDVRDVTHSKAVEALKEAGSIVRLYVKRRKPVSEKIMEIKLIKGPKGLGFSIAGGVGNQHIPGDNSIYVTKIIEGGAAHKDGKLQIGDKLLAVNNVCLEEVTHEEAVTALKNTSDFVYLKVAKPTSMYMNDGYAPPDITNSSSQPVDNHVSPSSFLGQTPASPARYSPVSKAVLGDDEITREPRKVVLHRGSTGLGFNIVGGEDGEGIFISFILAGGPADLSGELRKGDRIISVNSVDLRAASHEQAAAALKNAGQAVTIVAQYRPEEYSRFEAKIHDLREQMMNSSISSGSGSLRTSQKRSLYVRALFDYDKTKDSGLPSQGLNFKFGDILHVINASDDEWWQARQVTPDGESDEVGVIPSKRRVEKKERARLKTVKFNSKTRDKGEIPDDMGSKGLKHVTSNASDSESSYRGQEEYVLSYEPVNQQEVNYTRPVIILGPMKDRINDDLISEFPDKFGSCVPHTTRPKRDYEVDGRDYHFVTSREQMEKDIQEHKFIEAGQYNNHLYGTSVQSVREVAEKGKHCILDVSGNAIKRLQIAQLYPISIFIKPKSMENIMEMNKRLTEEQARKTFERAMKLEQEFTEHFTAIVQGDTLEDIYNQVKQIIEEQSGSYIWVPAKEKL

Question: With S805E as the variant, how does the “effect of a mutation on the interaction” value read?
Answer: decreasing interaction strength

Variants of: B2
Settings: with dlg1_human DLG1, Q12959
Target sequence in this assay (Q12959 whole entry, looked up): as above

Question: For T594E, which “effect of a mutation on the interaction” value is on record?
Answer: disrupting interaction strength

Variants of: B3
Settings: with scrib_human SCRIB
Target sequence in this assay (Q14160 whole entry): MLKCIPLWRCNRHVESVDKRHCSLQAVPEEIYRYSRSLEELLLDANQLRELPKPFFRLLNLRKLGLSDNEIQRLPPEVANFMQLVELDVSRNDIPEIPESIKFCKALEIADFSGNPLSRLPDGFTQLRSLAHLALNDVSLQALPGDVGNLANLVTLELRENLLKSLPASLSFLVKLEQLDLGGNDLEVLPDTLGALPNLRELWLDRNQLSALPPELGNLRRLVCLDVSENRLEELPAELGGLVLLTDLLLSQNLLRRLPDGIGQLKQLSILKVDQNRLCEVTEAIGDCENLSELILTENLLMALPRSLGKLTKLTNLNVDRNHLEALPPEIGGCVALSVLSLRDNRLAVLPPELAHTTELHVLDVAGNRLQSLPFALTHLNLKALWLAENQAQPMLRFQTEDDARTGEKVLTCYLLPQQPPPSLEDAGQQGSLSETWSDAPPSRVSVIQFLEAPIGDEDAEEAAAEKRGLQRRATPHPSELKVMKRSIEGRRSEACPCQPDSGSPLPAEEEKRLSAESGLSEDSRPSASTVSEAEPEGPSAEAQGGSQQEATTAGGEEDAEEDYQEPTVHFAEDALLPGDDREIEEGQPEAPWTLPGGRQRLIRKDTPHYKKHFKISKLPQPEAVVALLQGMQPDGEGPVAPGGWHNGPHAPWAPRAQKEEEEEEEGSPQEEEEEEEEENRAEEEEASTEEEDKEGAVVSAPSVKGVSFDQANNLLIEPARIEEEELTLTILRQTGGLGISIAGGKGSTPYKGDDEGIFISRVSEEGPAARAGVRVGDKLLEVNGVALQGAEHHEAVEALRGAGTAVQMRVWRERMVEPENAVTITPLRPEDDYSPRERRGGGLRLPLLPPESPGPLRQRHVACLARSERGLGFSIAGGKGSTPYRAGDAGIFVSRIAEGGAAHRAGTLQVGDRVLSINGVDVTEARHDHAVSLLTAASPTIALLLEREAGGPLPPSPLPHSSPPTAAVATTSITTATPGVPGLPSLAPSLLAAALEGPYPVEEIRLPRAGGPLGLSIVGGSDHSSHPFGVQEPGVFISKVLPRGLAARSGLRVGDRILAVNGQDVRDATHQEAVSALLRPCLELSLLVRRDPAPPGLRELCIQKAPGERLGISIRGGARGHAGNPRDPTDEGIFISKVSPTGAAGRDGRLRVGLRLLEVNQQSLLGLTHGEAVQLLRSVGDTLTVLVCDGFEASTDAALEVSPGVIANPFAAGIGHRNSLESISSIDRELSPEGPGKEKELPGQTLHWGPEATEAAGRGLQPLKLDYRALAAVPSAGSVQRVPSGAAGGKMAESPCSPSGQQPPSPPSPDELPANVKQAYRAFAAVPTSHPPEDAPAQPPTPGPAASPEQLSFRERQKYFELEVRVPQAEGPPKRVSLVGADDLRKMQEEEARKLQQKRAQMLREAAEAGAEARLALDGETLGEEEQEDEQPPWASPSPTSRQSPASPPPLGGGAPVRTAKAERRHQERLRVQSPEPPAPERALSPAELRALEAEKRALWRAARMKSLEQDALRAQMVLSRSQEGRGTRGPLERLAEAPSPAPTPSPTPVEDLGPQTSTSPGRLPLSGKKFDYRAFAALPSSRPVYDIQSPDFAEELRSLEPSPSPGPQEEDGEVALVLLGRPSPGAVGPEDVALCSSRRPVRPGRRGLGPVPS

Question: How did the “effect of a mutation on the interaction” value turn out when T707E was run?
Answer: disrupting interaction strength

Variants of: B3
Settings: with dlg1_human DLG1, Q12959
Target sequence in this assay (Q12959 whole entry, looked up): as the sequence (Q12959 whole entry, looked up) above

Question: For T707E, which “effect of a mutation on the interaction” value is on record?
Answer: disrupting interaction strength

Variants of: B4
Settings: with dlg1_human DLG1, Q12959
Target sequence in this assay (Q12959 whole entry, looked up): as above

Question: For S517E;S520E, which “effect of a mutation on the interaction” value is on record?
Answer: with no effect

Question: Which “effect of a mutation on the interaction” value does the source give for S520E here?
Answer: increasing interaction strength

Variants of: B5
Settings: with scrib_human SCRIB
Target sequence in this assay (Q14160 whole entry): as the sequence (Q14160 whole entry) above

Question: For S443E, which “effect of a mutation on the interaction” value is on record?
Answer: disrupting interaction strength

Variants of: B6
Settings: with scrib_human SCRIB
Target sequence in this assay (Q14160 whole entry): as above

Question: For S902E, which “effect of a mutation on the interaction” value is on record?
Answer: increasing interaction strength
